These results are taken from US20030162714A1 (Pfizer, published 2003).

In this assay the target is T1, recombinant purified GDF-8 (UniProt O14793 267-375, limits assumed).
T1 sequence (looked up): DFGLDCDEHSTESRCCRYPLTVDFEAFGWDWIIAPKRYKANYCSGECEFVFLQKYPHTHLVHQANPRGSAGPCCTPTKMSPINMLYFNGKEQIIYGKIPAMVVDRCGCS
Nature of the assay: cell-based or functional assay.

B1: mouse GASP1 cloned with a C-terminal V5-His tag (GASP1-V5-His) (other, not shown: small tags and cut ends)
chain: LPPIRYSHAGICPNDMNPNLWVDAQSTCKRECETDQECETYEKCCPNVCGTKSCVAARYMDVKGKKGPVGMPKEATCDHFMCLQQGSECDIWDGQPVCKCKDRCEKEPSFTCASDGLTYYNRCFMDAEACSKGITLSVVTCRYHFTWPNTSPPPPETTVHPTTASPETLGLDMAAPALLNHPVHQSVTVGETVSFLCDVVGRPRPELTWEKQLEDRENVVMRPNHVRGNVVVTNIAQLVIYNVQPQDAGIYTCTARNVAGVLRADFPLSVVRGGQARATSESSLNGTAFPATECLKPPDSEDCGEEQTRWHFDAQANNCLTFTFGHCHHNLNHFETYEACMLACMSGPLATCSLPALQGPCKAYVPRWAYNSQTGLCQSFVYGGCEGNGNNFESREACEESCPFPRGNQHCRACKPRQKLVTSFCRSDFVILGRVSELTEEQDSGRALVTVDEVLKDEKMGLKFLGREPLEVTLLHVDWTCPCPNVTVGETPLIIMGEVDGGMAMLRPDSFVGASSTRRVRKLREVMYKKTCDVLKDFLGLQ
B1: the “IC50 for inhibition of GDF-8 in the reporter gene assay ((CAGA)12 luciferase, RD cells, 20 ng/ml GDF-8)” value is roughly 3 nM.
